{"source": "the DeepSol protein solubility set"}
{"experiment": "soluble on expression in E. coli; label from the status in PepcDB or PDB records"}
{"sequence": "MESVTRKSVLQLEERPGDSSSSSDEEINTIGNVPLDWYKDLSHIGYTRDGIKLLRRKRVGPLCPVYVKKGFYYLYDEKNDEEIALSRNDLKRLVSIVRLQNPSGATESGFVGEEIVFWTGTPRIEPIRNRNEPKRSFLPSRHEAAQVVKLVRSILRRKRIEELKEHKSEKEDLSIWEETSFEQVGRSHHYLPPPKTPLPGHEESYRPPPEFLLNEEEKSKRKENNELVPETYNFLRHVPLYTSLIREHFERCLELYCAPRMRVRRRKIDPEALLPKLPSPDTLRPFPDSQVASFGPHAGAIRAISLNSNGQWLACACQDGSVSIWEVATGICRIRIDFQEKLKEMLASFESLSQATESEMESMGQYEDLSILHVAWSPKENDFKLAVCIKHFVAVVNVAHILYPDEAQDSQSFGYSVVGEPSSNWKDWKDERGNLGRIAIIEHSRKVQHVHWHQRGDYFVVLTKNAFGSSLVVHQLSRKRTQSPFSKSAKGVITADFHPSKSLFFITTKHHVRIYDLAQAQLVNKLVTGISEISAMSVHPSGNHVLIGSVEGQLVWFDLDLSSRPYKRIRDHTYTVSSIAFHPTLPLFADASDDQTVAVFHATVYEDLLQNPLIVPLKVLKLPHNSKGTGVWSICWHPQLPWLFVSGIDEYVRLYADTS", "soluble on expression in E. coli": "soluble"}
{"sequence": "SGHPPLEFSDCYLDSPDFRERLKCYEQELERTNKFIKDVIKDGNALISAMRNYSSAVQKFSQTLQSFQFDFIGDTLTDDEINIAESFKEFAELLNEVENERMMMVHNASDLLIKPLENFRKEQIGFTKERKKKFEKDGERFYSLLDRHLHLSSKKKESQLQEADLQVDKERHNFFESSLDYVYQIQEVQESKKFNIVEPVLAFLHSLFISNSLTVELTQDFLPYKQQLQLSLQNTRNHFSSTREEMEELKKRMKEAPQTCKLPGQPTIEGYLYTQEKCVWGHRGIHWVSISQELLPLVGCEFWAPLLFIDP", "soluble on expression in E. coli": "soluble"}
{"sequence": "MGSDKIHHHHHHMGNPRAFLTIHRQEAGYRPVHERIDDFSEVEQTLNSGDRRTQASRCMDCGVPFCHWACPLGNKQPEWQDLLYKGRYKEAYHVLEQTDDFPEFTGRVCPALCEKSCVLKLSCDEPVTIRENEAAIVEAAFREGYVQPIQPVRNGKKVAVIGSGPAGLTVANQLNRKGYEVTVFEKDELPGGLLRFGIPNFKLGKHIIDRRIRIMEQEGILFRVNTMVGKEILAKDVVKDFDAVCVAIGAEVPRDLSIEGRHLRGVHFALELLSQQNRILEGIPIPPKSQINCKGKKVLVIGGGDTGSDCVGTANRHGAACVTQIEIMPQPPVGQNPATPWPMYPQVLKTSSSHEEGCIRRWNLASNRFIGEKNNLIGVEVEEVEWVPSPDGGRPQMRQTGKKEIIEADLVFLAMGFLHPVQEGLIKELRLATDNRNNIAVDNAGYTANSNLFACGDAVSGASLVVKAMASGRNVARSIDRFLQTN", "soluble on expression in E. coli": "not soluble"}
{"sequence": "MESGHRFDAQTLHSFIQAVFRQMGSEEQEAKLVADHLIAANLAGHDSHGIGMIPSYVRSWSQGHLQINHHAKTVKEAGAAVTLDGDRAFGQVAAHEAMALGIEKAHQHGIAAVALHNSHHIGRIGYWAEQCAAAGFVSIHFVSVVGIPMVAPFHGRDSRFGTNPFCVVFPRKDNFPLLLDYATSAIAFGKTRVAWHKGVPVPPGCLIDVNGVPTTNPAVMQESPLGSLLTFAEHKGYALAAMCEILGGALSGGKTTHQETLQTSPDAILNCMTTIIINPELFGAPDCNAQTEAFAEWVKASPHDDDKPILLPGEWEVNTRRERQKQGIPLDAGSWQAICDAARQIGMPEETLQAFCQQLAS", "soluble on expression in E. coli": "soluble"}
{"sequence": "RSRGNFPIYNNTRVTYFPTGETFFDSLKEQLFLAKKYIFLEFFIIAEGQMWGEILSILEKKVSEGVEVRVLFDGMNELSTLSSDYAKRLEQIGIKAKSFLPISPFISTYYNYRDHRKIVVIDGEVSFTGGINLADEYINEVERFGHWKDAGLMLEGEATDSFLILFLQMWSITEKELIIDPYLSDHSLKLPSDGYVIPYGDSPLDTDKIGKNV", "soluble on expression in E. coli": "not soluble"}
{"sequence": "MKVSILDYGVIDKEKTPQEALLETRCLAQVADKLGFHRFWVAEHHNIYAFAISSPELLMMHLADHTKQIRIGSGGIMPLHYSSFKIAEWIMTLEALHPNRIDLGIGNSLGTTLVQRALSSIHCKDSYSQVVTELYQYLNPDHLSPLPIFVNPRGNTYPQIWTLSNSLETAELAGQLGLGYTFGIFPYIPKDPITEAKRVSAHYRKAFRPSKLLKIPKLILAVFIVLSDTDEKAEALAKPLDIWMLGQQDFNEFKTYPDVEEARNYHLTEKQREAIAANRSRMVIGSPHTVKKQLDRLIEACQADELLAIPLVPEFANRQRTLELLADLYVTI", "soluble on expression in E. coli": "not soluble"}
{"sequence": "MRTLFIGDLHLSADRLDITQAFNRFLDTELDDADALYILGDLFEVWVGDDLAAPFALELAHKLKQVSQTLPIFFIHGNRDFMLGKRFAEAAGMQLLPEVTCIELYGVKTVILHGDSLCTLDKAYQRFRKLRSFACARWLYSCLPKKRRQAIANKIRSNSQSSNQQKSYVIMDVEPSAVNALFVKTHTTRMIHGHTHRPAIHIVDNACQRIVVGDWYEQGSVLSVSANGVDLKSLPFETTLEHHHHHH", "soluble on expression in E. coli": "not soluble"}
{"sequence": "GSVLEPLKVVWAKCSGYPSYPALIIDPKMPRVPGHHNGVTIPAPPLDVLKIGEHMQTKSDEKLFLVLFFDNKRSWQWLPKSKMVPLGIDETIDKLKMMEGRNSSIRKAVRIAFDRAMNHLSRVHGE", "soluble on expression in E. coli": "soluble"}
{"sequence": "MTAPHDVPDLTGSGEYLVPDVLQPGLTLVLVGTAPSGISARARAYYANPENKFWRTLHAVGLTPRQLVPQEYATLPQYGLGLTDVAKRHSGVDAALPGEAWRPDELRRKVEHYRPRIVAFTSKRGASETLGVPTGKLPYGPQPQPLDWPAETELWVLPSTSPLGHNHFRLEPWQALGDRVRELRGAAEAGNPSPETPVL", "soluble on expression in E. coli": "soluble"}
{"sequence": "MMPPLTKIEVLAKRVMEGAQLKTHKYFRIAVPHAITGQQLIALVLERGAPDDEAEASHLASLLLHHGYMFPVIEHGQPFKDDGTLYRLQRPYFWPSQAELVPDVEYAIYLNKRLLRNEQKHGLEEDEVESFNRLADVLAHMWAFIVQQSELQLKQQKEKKKVDKVVFDSEERAFWKIRKPSRGGPNFLEDPYMKIEKKIRRQNAQGYRCLMDRLRFAIKTKPWLKALKASDTMVTWVDQRAEFDPFLHPPQPSNPWISDEASFWNQPTDTSSAEIPTEKRVKRWGLSVQELVKDPIGRQVLETFLESEFSSENIRFWIAIQDLKYAPNEQIYQKAERIREEFLAQGAPAQVNVDNRTLDQTLECISKAKDASQMRFAFYHSEEHVFTLMAKDSYPRFVRSQIYKAVLTAAQQHGTKRLGWRNFVFNMGTTKKPATSKPAKPQDSIGTGQVLPKQLSSDSLPVRQAHGVKPDPE", "soluble on expression in E. coli": "not soluble"}
{"sequence": "MGSDKIHHHHHHMDSAYVFDSEQATKLLMKNYELVKTSGVSFIDKRIRFLIARLFAGNNEVVDPEEFSEINKEIKRQLGMFTALNGNVRASLVGLLMANDNASRESVQQVIANYNTLIQAGFQRTEYTYFAAYLLLESENPKKTARKAKTIHQLFKKDHPFLTKSEDVTTAVFLANLPEENTTKLAEITEYYFQEFAAKGFRKNDSLQFLATTGTLLYGEKDSKFIRRVDNIVEELRQKGIKVKPLHYSSIGILAFVMDARKIDSGLVNLIDELQQQPGLRFGREFVTALAISLYTEKQSGQMSKEQLEGLMVNVHILIAMEQAAAVSAAAAASAAAASS", "soluble on expression in E. coli": "not soluble"}
{"sequence": "MKYWLYTSLFLALIFSFRSYANSDIWILIDTLEQRLSVMRGDKAQLAFNNIAIGRYGASSSRMKGDNQTPLGSFQISWIKQHHRYYRFFGVDFPNQEAADLALAEKRISRQAWLSITKAIESSRLPPQDTPLGGYIGIHGIGRGDRTVHARFNWTNGCVALTNAQIDELSSWIKIGTKVVIR", "soluble on expression in E. coli": "not soluble"}
{"sequence": "MGELNKSARQIVEAVGGAENIAAATHCVTRLRFALIDESKVDQEMLDQIDVVKGSFSTNGQFQVVIGQGTVNKVYAELVKETGIGESTKDEVKKASEKNMNPLQRAVKTLADI", "soluble on expression in E. coli": "soluble"}
{"sequence": "MIDADAIKMRILSMMEQLGMTPSAFADRAGISRSALTHITSGRNKVTLDMINKIMQGFDEWSAEWIIFGKGPQQSNKTAFENDLFSYSSVPEQELHTRTKDNCGIQSPSGRLEPEIKIVQMPAKQIERITVFYTDGSYQEFRSNKE", "soluble on expression in E. coli": "not soluble"}
{"sequence": "MAVSKNVTVIPARKHTRKSKDEEKPKLRVAAYCRVSTDSEEQATSYDTQIEHYTAYIQGHPDWMLAGIFADDGISGTNTKKREEFNRMIDECMAGNIDMIITKSISRFARNTLDCLKYIRQLKDKNIPVYFEKENINTMDSKGEVMLTIMASLAQQESQSLSQNVKLGLQYRYQQGEIQVNCARFLGYTKDENKRLVVVPEEAEIVKRIYREYLEGASMLKIARGLEADGILNGAGNERWHTSNINNILRNEKYIGDALLQKTYTVDFLTKKRVKNNGIVPQYYVENSHEAIIPREVFMQVQEELIRRRIVHTSPNGKTRTFSSNHVFAQIIICGKCGEVFRRVHWNNRGKKSIVWRCVSRLENTGLFCDARTVLESTIEQVLVTAINQTLCDKDSFLTTLRDNIATIINRESDKALADIDKRLEELQTELLKLATSNADYEKVGDEIHSLRDQKQKLQVENANRDELKKQIADMSTFLKKQSTALAEYDKQLVRRLIDKVTVFEDKFTVEFKSGVTVDVDE", "soluble on expression in E. coli": "soluble"}
{"sequence": "MLFDMLHSFHESRVIKSHHNLTQQPVSTFLLMGLDNSGKRKLSTTRTDGMMVVIVNHKTKTMTLCSLLRDTFVKIHSQQYHGYQRIESAYTYGGDAAAIATVEHYLNLPIDYYLTVNWDGFIRAIDDIGPVEVNVDRDFIGQDYWGKPEKFKAGLQSMSGARALAYARERHIDNDQHRGFRQQAVFYAMVKRLNQEGLSSKGAKVVGDLKDQMRTNLTNHDMLTLFKSRKTFKRYRVKRLTFQWRTFDVAGRSMVEVYPDSRVQVSRQLQAAAGLRPDLPSQTFTTNGHYRYASDESVESKADEAKADTHYGQSHVYVGHAGNTTIGKLPAAVPLKNGFRVSDRTETMYTVHLEHHHHHH", "soluble on expression in E. coli": "soluble"}
{"sequence": "AGQCSQNEYFDSLLHACIPCQLRCSSNTPPLTCQRYCNASVTNSVKG", "soluble on expression in E. coli": "soluble"}
{"sequence": "MGSDKIHHHHHHVKKSESLPVLIVTGLSGAGKSTVLNVFEDLRFFTIDGLPVGVVADLLEHLARDAMGRYRGVVLGMDLRQFDFLDEFEGALMRLEKMGVSPRIIYLEADSDTLVRRFATTRRPHPLEGGDLGLEAAVEHERNLLAPVRERADLILDTSEFSIHDLRRIVQKKWSSLGGSLRSLRVNLITFGFKYGVPSDADMVFDLRFLPNPYFDAKLKALSGKDPEIQQFVLGCEQGKTFFKRFLDFLLFLLPQYEAEGRYRITLAIGCTGGRHRSVSTAEALRDALKKSDYAVSLEHRHIDLG", "soluble on expression in E. coli": "not soluble"}
{"sequence": "MTIYNINFGIGWASSGVEYAQAYRAKLLRRTNQDTKFVFLDFIQSENIQTLTQNIGFKDQEVIWLYQYFSDISLAPTTYTLDDIERELGHDISFRERNGKIVRLYFNGKSSFVTCYLQNEQKDIVDRAEFVINSMLVRKDFYSYTRIFSEYYAPADNKAKLYMRQFYNQDGSIAYNEYIDGDSSIYVFEDAVLYNKTEFIAYFLQRLNLTRDDIVILDRASDIGQAVLQHKGDSKVGVVIHADHYSNNMMSEQHILWNNYYEYQFSKAKYIDFFITATDIQNHMVCRQFEQYQGYRPRVYTIPVGSIDALSYPTLSRKPYAMISASRLANEKHIDWLVKAVIVAKRQVPELTFDIYGEGSEKTRLRKIIDTHRAQDYIRLLGHVKLDEIYNDYELFLSASTSEGFGLTLMEAVGSGLGMIGLNVNYGNPTFIRDGENGYLVPFDTDEDSVDDVIAKLAHAIVMYFNNGPQTPHDISYEVAQQFMTQDIILKWETLVQEVLHD", "soluble on expression in E. coli": "not soluble"}
